Source: US11672846B2, “Soluble bacterial and fungal proteins and methods and uses thereof in inhibiting and dispersing biofilm” (priority 2014, dated 2023)
“Also recorded” adds a separate entry of the source.

Assays:
[1] = Reducing sugar assay, substrate specificity; assay type: biochemical
Description: […] […] The pellets were washed twice with 350 μL PBS. The wash procedure included vortexing for 5 min, sonicated in a bath for 3 min, and manual mixing by pipetting to reach homogeneity. The final pellet was resuspended in 200 μL of PBS. Samples were treated with 10-20 μM protein and incubated at 26° C. Samples were taken at 24 h. […] Briefly, 20 μL of enzyme reaction was mixed with 20 μL of 0.5 M NaOH and 20 μL of MBTH/DTT solution (1.5 mg/L 3-methyl-2-benzothiazolinone hydrazine (MBTH) and 0.5 mg/L DTT). The samples were incubated at 80° C. for 15 min before the addition of 40 μL of acidic iron reagent (0.5% (FeNH4(SO4)2).12 H2O, 0.5% sulfamic acid, and 0.25 N HCl). Samples were diluted two-fold in water, before the absorbance was quantified at 620 nm.

[2] = test system: Pel biofilms of P. aeruginosa PAO1 ΔwspFΔpslpBADpel; assay: Dispersal of pre-formed Pel biofilms (crystal violet); details: 38 μM and 19 μM, 2 h
Description: The methodology to generate pre-formed Pel biofilms is identical to that of Psl biofilms, described in Example 4 with the exception that the strain used is P. aeruginosa PAO1 ΔwspFΔpslpBADpel.

[3] = test system: P. aeruginosa PAO1 ΔwspFΔpslpBADpel biofilms with differentiated HL-60 cells; assay: HL-60 neutrophil killing of P. aeruginosa biofilm (CFU plating)
Description: Overnight cultures of P. aeruginosa PAO1 ΔwspFΔpslpBADpel were diluted to an OD600 of 0.05 in LB+0.5% arabinose and inoculated in a 96 well tissue culture-treated plate at a final volume of 100 μl/well. The plate was incubated statically at 28° C. for 20 h. Supernatants were aspirated and 100 μL of phenol red-free RPMI+10% Fetal Bovine Serum (FBS) containing 0.5 μM of PelA47-303 was added. The plate was incubated at room temperature on a Nutator for 1 h. Following pretreatment with hydrolase, 100 μL RPMI+10% FBS containing 6×10^6 differentiated HL-60 cells were added to the wells, and plate was incubated for 90 min at 37° C., 5% CO2. Wells were aspirated and supernatant was diluted between 1/200000 and 1/400000, and plated (50 μl) onto LB agar. To aspirated wells, 200 μL of “disruption solution” (PBS containing 2 μM of PelA47-303 and 2 μM PslG31-442) was added and plate was incubated at room temperature on the Nutator for 1-1.5 h. Wells were aspirated, diluted and plated onto LB agar as above.

[4] = test system: pre-formed A. fumigatus GAG biofilms; assay type: cell-based; details: crystal violet
[5] = test system: Psl biofilms of P. aeruginosa PAO1 pBADpsl; assay: Dispersal of pre-formed Psl biofilms (crystal violet); assay type: cell-based, Pseudomonas aeruginosa
[6] = test system: P. aeruginosa PAO1 pBADpsl; assay: Inhibition of Psl biofilm formation in static culture (crystal violet); assay type: cell-based, Pseudomonas aeruginosa; details: specificity control
[7] = purified protein
[8] = test system: Pel-dependent biofilms from P. aeruginosa PAO1 ΔwspFΔpslpBADpel; assay: Pel biofilm dispersal by enzyme in Pluronic F-127 gel; assay type: cell-based, Pseudomonas aeruginosa; details: 100, 200 and 500 μg/mL in 20% Pluronic F-127, 1 h
Description: Poloxamer 407 (trade name Pluronic® F-127 or PF-127) is a hydrophilic non-ionic surfactant has been used as a drug delivery system for a number of routes of administration (Escobar-Chavez et al 2006). A 20% gel of PF-127 was prepared by mixing 1×PBS with Pluronic® F-127 at 4° C. until the polymer was dissolved. PelA47-303 was added at three concentrations; 100 μg/mL, 200 μg/mL and 500 μg/mL to this solution. Pel-dependent biofilms from strain P. aeruginosa PAO1 ΔwspFΔpslpBADpel were formed as described in Example 8. The buffer, gel and gels containing various concentrations of PelA47-303 were applied to the biofilm.

[9] = Reducing sugar assay on purified GAG; assay type: biochemical, A. fumigatus
Description: Crude GAG was isolated from A. fumigatus biofilms. 200 μL GAG aliquots were centrifuged to pellet the gelatinous fraction. The pellets were washed twice with 350 μL PBS. The wash procedure included vortexing for 5 min, sonicated in a bath for 3 min, and manual mixing by pipetting to reach homogeneity. The final pellet was resuspended in 200 μL of PBS. Samples were treated with 10-20 μM protein and incubated at 26° C. Samples were taken at 24 h. GAG hydrolysis was quantified using a reducing sugar assay as described previously (Anthon & Barrett 2002) with slight modifications. Briefly, 20 μL of enzyme reaction was mixed with 20 μL of 0.5 M NaOH and 20 μL of MBTH/DTT solution (1.5 mg/L 3-methyl-2-benzothiazolinone hydrazine (MBTH) and 0.5 mg/L DTT). The samples were incubated at 80° C. for 15 min before the addition of 40 μL of acidic iron reagent (0.5% (FeNH4(SO4)2).12 H2O, 0.5% sulfamic acid, and 0.25 N HCl). Samples were diluted two-fold in water, before the absorbance was quantified at 620 nm.

[10] = test system: A549 pulmonary epithelial cell line injured by A. fumigatus; assay: Chromium release epithelial cell damage assay; details: 0.5 μM, 16 h
Description: The immortalized airway epithelial cell line A549 was loaded with chromium-51 by incubating monolayers grown in 24-well tissue culture plates with 3 mCi of ^51Cr at 37° C. in 5% CO2 for 24 h. Excess chromium was removed by washing with Hank's Balanced Salt Solution (HBSS). […] For testing germ tubes, conidia were grown for 7 h in SAB media at 37° C., then the fungus was collected and resuspended in DF12K media before 0.5 μM of hydrolase was added. The germ tubes were incubated with hydrolase for 1 h before being added to the A549 cells. After 16, 20 and 24 h of co-incubation, an aliquot of the medium above the cells was retrieved and replaced with fresh media. The cells were then lysed with 6 N NaOH and the lysate collected. The ^51Cr content of the medium and lysates was then measured in a gamma counter and the extent of epithelial cell damage was calculated as a function of the degree of ^51Cr release. Each strain was tested in triplicate, and all results were corrected for spontaneous chromium release by uninfected epithelial cells.
The methodology for prevention of epithelial cell damage caused by A. fumigatus using Sph352-298 is identical to that previously described in Example 19 for the use PelA47-303.

A. fumigatus GAG biofilm = assay: Inhibition of GAG-dependent A. fumigatus biofilm formation (crystal violet); assay type: cell-based; details: 20 h in Brian media, crystal violet
[11] = test system: P. aeruginosa PAO1 ΔwspFΔpslpBADpel; assay: Inhibition of Pel biofilm formation in static culture (crystal violet); details: static culture
[12] = test system: PNAG-overproducing E. coli biofilms; assay: Dispersal of pre-formed PNAG-dependent E. coli biofilms
Description: Bacterial cultures expressing Psl were inoculated as stated above and were grown at 37° C. overnight with shaking at 200 rpm. All cultures were diluted in 1:100 in LB and arabinose was added to a final concentration of 0.5% (w/v) to induce Psl biosynthesis. Media containing the Psl-producing cultures were supplemented with 200 μg/mL ampicillin and 100 μg/mL kanamycin. The cultures were incubated statically for 24 h at 26° C. to allow for biofilm formation. After incubation non-adherent cells and media were removed by washing the plate with deionized water three times. The wells were filled with 95 μL of 100 mM sodium HEPES buffer pH 7.0 followed by 5 μL of varying concentrations of each hydrolytic enzyme (2 nM-5 μM). Reactions were allowed to proceed for up to 60 min at 25° C. on a rotating nutator at which time, the reaction was quenched by washing the plates with deionized water. The wells were stained with 200 μL of 0.1% (w/v) crystal violet for 10 min, and washed with water three times. Crystal violet dye from Psi cultures was solubilized in 100 μL of 95% ethanol for 10 min with rotation, after which time the absorbance was measured at 595 nm using a SpectraMax M2 from Molecular Devices (Sunnyvale, Calif.). The amount of biofilm is proportional to the absorbance from staining with crystal violet (Merritt et al 2005). All reactions were completed in at least triplicate and 100 mM sodium HEPES buffer pH 7.0 was used as an untreated control. The addition of 2.5 mg/mL kanamycin to culture prior to biofilm formation was used as a positive control as no cell growth occurs.
PNAG-overproducing E. coli was grown at 37° C. overnight in LB broth supplement with 200 ug/mL ampicillin and 100 ug/mL kanamycin with shaking at 200 rpm. An E. coli μgaABCD knockout strain was used as a non-biofilm forming control for background straining.

B1: PelA47-303: soluble PelA hydrolase domain, residues 47-303, P. aeruginosa PAO1, SEQ ID NO: 12 (protein, listed as Pseudomonas aeruginosa)
chain: GGPSSVAFWYAERPPLAELSQFDWVVLEAAHLKPADVGYLKEQGSTPFAYLSVGEFDGDAAAIADSGLARGKSAVRNQAWNSQVMDLAAPSWRAHLLKRAAELRKQGYAGLFLDTLDSFQLQAEERREGQRRALASFLAQLHRQEPGLKLFFNRGFEVLPELPGVASAVAVESIHAGWDAAAGQYREVPQDDRDWLKGHLDALRAQGMPIVAIDYLPPERRDEARALAARLRSEGYVPFVSTPALDYLGVSDVEVQP
In the case of B1, the “hydrolysis of chitin and chitosan” value [1] is reported as “not significant over background hydrolysis”, the “dispersal of pre-formed Pel biofilm (in words)” value [2] is reported as “successfully dispersed the Pel biofilm; also recorded: biofilm dispersal after 2 hours” and the “degree of microbial killing by HL-60 neutrophil cell line” value ([3]; 0.5 μM enzyme pretreatment, neutrophils alone approximately 22%) is reported as roughly 42%. The “bacterial killing relative to neutrophils alone” value ([3]; enzyme with neutrophils) was roughly 2 fold, the “dispersal of pre-formed GAG biofilm (in words)” value [4] was “elimination of the GAG biofilm” and the “dispersal of pre-formed Psl biofilm (in words)” value [5] was “did not result in the loss of the Psl-dependent biofilm”. For the same molecule, the “inhibition of Psl biofilm formation (in words)” value [6] was “did not inhibit Psl biofilm formation”, the “concentration to which the protein could be concentrated” value [7] was 8000 to 10000 µg/mL and the “dispersal of Pel-dependent biofilm by enzyme in gel” value [8] was “able to disperse the biofilm; also recorded: successfully dispersed the biofilm”. The “GAG hydrolysis, reducing ends (in words)” value ([9]; 10-20 μM protein, 26° C., 24 h) was “number of reducing ends in solution increased”, the “reducing ends produced relative to Sph352-298” value ([9]; under assay conditions) was roughly 2 fold and the “epithelial cell injury by A. fumigatus, chromium release” value [10] was “blocked the ability of A. fumigatus to induce pulmonary epithelial cell injury”. For the same molecule, the “concentration sufficient to prevent GAG biofilm formation” value (A. fumigatus GAG biofilm) was no less than 2 µM, the “enzyme concentration that prevented Pel biofilm formation” value [11] was 500 nM and the “dispersal of PNAG-dependent biofilms (in words)” value [12] was “had no affect”.
